The results in this text go back to PMC2603668, “Rhabdovirus Matrix Protein Structures Reveal a Novel Mode of Self-Association” (PLoS Pathogens, 2008).

This data set deals with the molecule itself. The data set can be described thus: crystal structure.

B1: matrix (M) protein from Lagos bat virus (natural protein)
chain: MNFLRKIVKNCKDEEIPKPGTPSAPPDDDDLWMPPPEYVPLTQIKGKENVRNFCINGEIKICSPNGYSFRILRHILKSFDNVYSGNRRLIGVVKVVIGLVLSASPVPEGMNWVYKLRRTLIFQWAESHGPLEGEELEYSQEITWDDEAEFVSLQIRVSAKQCHIQGRLWCINMNSKACQLWADMGLKTQQSQEDENTSLLLE
notes: also called LBV M; full-length LBV M
As to B1, the binding result is reported as “binds”.
